Laboratory results as given in US20200062856A1 (XDCEXPLORER SHANGHAI, published 2020).
Residue numbers refer to the chain shown, from its start.

T1: human TPBG protein, full-length, on the cell surface (human, UniProt Q13641 32-420)
T1 sequence (looked up): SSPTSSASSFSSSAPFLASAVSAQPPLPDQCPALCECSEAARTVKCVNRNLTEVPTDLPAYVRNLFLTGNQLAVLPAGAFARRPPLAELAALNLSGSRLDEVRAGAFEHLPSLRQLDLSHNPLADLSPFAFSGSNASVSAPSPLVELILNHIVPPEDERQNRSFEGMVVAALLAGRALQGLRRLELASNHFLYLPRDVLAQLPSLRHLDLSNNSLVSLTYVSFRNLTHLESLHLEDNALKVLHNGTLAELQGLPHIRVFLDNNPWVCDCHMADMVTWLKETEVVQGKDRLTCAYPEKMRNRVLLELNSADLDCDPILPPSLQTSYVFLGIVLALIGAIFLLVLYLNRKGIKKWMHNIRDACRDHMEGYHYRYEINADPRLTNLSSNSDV

T2: cynomolgus TPBG protein, full-length, on the cell surface (cynomolgus, UniProt Q4R8Y9 35-420)
T2 construct: whole, on cells; also called cTPBG; CHOk1-cTPBG
T2 sequence (looked up): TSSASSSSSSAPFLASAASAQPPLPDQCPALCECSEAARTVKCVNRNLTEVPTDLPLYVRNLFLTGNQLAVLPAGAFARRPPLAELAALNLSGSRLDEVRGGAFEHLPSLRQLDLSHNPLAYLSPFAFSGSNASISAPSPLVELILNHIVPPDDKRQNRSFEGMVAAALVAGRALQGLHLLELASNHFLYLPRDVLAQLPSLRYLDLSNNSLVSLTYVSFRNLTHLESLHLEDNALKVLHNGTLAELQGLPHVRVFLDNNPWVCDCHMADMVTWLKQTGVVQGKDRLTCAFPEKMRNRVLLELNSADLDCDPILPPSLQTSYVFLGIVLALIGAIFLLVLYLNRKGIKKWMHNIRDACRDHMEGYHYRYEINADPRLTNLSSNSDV

T3: human TPBG antigen immobilized on a CM5 chip (human, UniProt Q13641 32-355, limits assumed)
T3 sequence (looked up): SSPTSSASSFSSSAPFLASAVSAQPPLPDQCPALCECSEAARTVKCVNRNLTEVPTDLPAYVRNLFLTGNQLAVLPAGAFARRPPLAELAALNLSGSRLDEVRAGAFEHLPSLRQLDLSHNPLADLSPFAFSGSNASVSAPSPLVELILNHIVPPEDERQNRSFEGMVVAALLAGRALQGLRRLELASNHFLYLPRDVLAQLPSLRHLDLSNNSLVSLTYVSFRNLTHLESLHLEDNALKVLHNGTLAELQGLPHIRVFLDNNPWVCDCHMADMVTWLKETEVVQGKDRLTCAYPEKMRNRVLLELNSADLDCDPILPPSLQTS

T4: mouse TPBG protein, full-length, on the cell surface (mouse, UniProt Q9Z0L0 32-426)
T4 construct: whole, on cells; also called mTPBG; CHOk1-mTPBG
T4 sequence (looked up): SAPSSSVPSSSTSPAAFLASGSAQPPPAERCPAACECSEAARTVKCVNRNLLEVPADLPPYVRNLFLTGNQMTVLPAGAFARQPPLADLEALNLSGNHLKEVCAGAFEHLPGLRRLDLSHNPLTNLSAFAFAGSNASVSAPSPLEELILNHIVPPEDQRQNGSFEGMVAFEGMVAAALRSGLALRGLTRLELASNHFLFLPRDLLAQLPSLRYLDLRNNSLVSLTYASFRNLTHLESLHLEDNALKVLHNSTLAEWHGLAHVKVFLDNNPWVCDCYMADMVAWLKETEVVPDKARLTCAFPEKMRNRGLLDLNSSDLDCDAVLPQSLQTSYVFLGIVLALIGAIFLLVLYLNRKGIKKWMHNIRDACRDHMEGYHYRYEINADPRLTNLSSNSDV

T5: human TPBG-hFc protein (human, UniProt Q13641 32-355)
T5 construct: range 32-355; Expressed in HEK293 cells, purified on protein A; also called immunogen A; hFc tagged TPBG protein; not shown: human IgG Fc fragment of the pCpC vector
T5 sequence (looked up): T3 sequence (looked up)

B1: Chimeric Antibody 12B12-MMAF (antibody, V domains shown)
VH: DVQLVESGGGLVQPGGSRKLSCAASGFTFSNFGMHWVRQAPEKGLEWVAYISSGSTSFYYADTVKGRFTISRDNPKNTLFLQMTSLRSEDTAMYYCSRTNSLLRGFFDAWGAGTTVTVSS
VL: DIVLTQSPASLAVSLGQRATISCRASQSVSSSSYTYLHWYQQKPGQPPKLLIKSASNLESGVPARFSGTGSGTDFTLNIHPVEEEDTATYYCQHSWEIPLTFGAGTKLELK
modifications: MC-MMAF on cysteines reduced with TCEP (sites not given), DAR 3.0-5.0 per antibody
B2: Humanized Antibody 12B12-15-MMAF (antibody, V domains shown)
VH: EVQLVESGGGVVQPGRSLRLSCAASGFTFSNFGMHWVRQAPGKGLEWVAYISSGSTSFYYADTVKGRFTISRDNSKNTLYLQMNSLRAEDTAVYYCARTNSLLRGFFDAWGQGTTVTVSS
VL: DIVLTQTPLSLSVTPGQPASISCRASQSVSSSSYTYLHWYLQKPGQPPQLLIKSASNLESGVPDRFSGSGSGTDFTLKISRVEAEDVGVYYCQHSWEIPLTFGQGTKLEIK
modifications: MC-MMAF on cysteines reduced with TCEP (sites not given), DAR 3.0-5.0 per antibody
B3: Chimeric antibody 28D4 (antibody, V domains shown)
VH: DVQLVESGGGLVRPGGSLKLSCAASGFTFSNYVMSWARQSPEKRLEWVAEISTGGSHTYYSDTVTGRFTISRDNAKKALYLEMSSLRSEDTAIYYCIMFYYGSSYSMDYWGQGTSVTVSS
VL: DIQMTQSTSSLSASLGDRITISCRASQDIRNYLNWYQQKPDGTVKLLIYHTSRLHSGVPSRFSGSGSGTDYSLTISNLEQEDIATYFCQQGDTLPLTFGAGTRLELK
notes: Mouse variable domains on human IgG1 heavy and human kappa light constant regions; also called c28D4; TPBG chimeric antibody 28D4
B4: Humanized antibody 28D4-3 (antibody, V domains shown)
VH: EVQLVESGGGLVKPGGSLRLSCAASGFTFSNYVMSWIRQAPGKGLEWVAEISTGGSHTYYSDTVTGRFTISRDNAKKSLYLQMNSLRAEDTAVYYCIMFYYGSSYSMDYWGQGTTVTVSS
VL: DIQMTQSPSSLSASVGDRVTITCRASQDIRNYLNWYQQKPGKAPKLLIYHTSRLHSGVPSRFSGSGSGTDFTFTISSLQPEDIATYYCQQGDTLPLTFGQGTRLEIK
notes: also called h28D4-3
B5: Humanized antibody 28D4-7 (antibody, V domains shown)
VH: B4 VH
VL: B4 VL with F71Y
notes: also called h28D4-7
B6: Humanized antibody 28D4-4 (antibody, V domains shown)
VH: B4 VH with I37A, G44R
VL: B4 VL
notes: also called h28D4-4
B7: Humanized Antibody 12B12-12-DM1 (antibody, V domains shown)
VH: B2 VH with V11L, R16G, A49S, S75A, T78S, A88D
VL: B2 VL
modifications: SMCC-DM1 (sites not given), DAR about 3.0-5.0 per antibody
B8: Chimeric Antibody 28D4-MMAF (antibody, V domains shown)
VH: B3 VH
VL: B3 VL
modifications: MC-MMAF on cysteines reduced with TCEP (sites not given), DAR 3.0-5.0 per antibody
B9: Humanized Antibody 28D4-3-MMAF (antibody, V domains shown)
VH: B4 VH
VL: B4 VL
modifications: MC-MMAF on cysteines reduced with TCEP (sites not given), DAR 3.0-5.0 per antibody
B10: Humanized Antibody 28D4-7-MMAF (antibody, V domains shown)
VH: B4 VH
VL: B4 VL with F71Y
modifications: MC-MMAF on cysteines reduced with TCEP (sites not given), DAR 3.0-5.0 per antibody
B11: Humanized Antibody 28D4-4-MMAF (antibody, V domains shown)
VH: B4 VH with I37A, G44R
VL: B4 VL
modifications: MC-MMAF on cysteines reduced with TCEP (sites not given), DAR 3.0-5.0 per antibody

target: T1, human TPBG protein, full-length, on the …; assay: cell-based or functional assay

B1 and B2 are within 1.5-fold of each other in “IC50 of cell killing, NCI-H1568 cells (CellTiter-Glo, 5 days)” value (“IC50 of cell killing, NCI-H1568 cells” below): 0.063 nM for the first, 0.058 nM for the second.

target: T2, cynomolgus TPBG protein, full-length, …; assay: FACS on CHOK1-cTPBG cells

Going from B3 to B4, the EC50 falls from 0.94 nM to 0.62 nM (1.5-fold).

Going from B5 to B6, the EC50 rises from 0.27 nM to 0.72 nM (2.7-fold). The first is the more potent here.

target: T3, human TPBG antigen immobilized on a CM5 …; assay: SPR (Biacore), human TPBG antigen immobilized on CM5 chip
Protocol: To assess the binding specificity and affinity of the humanized anti-TPBG antibody, Biacore analysis was performed using human TPBG antigen immobilized on a CM5 chip. Biacore technique utilizes the change in the refractive index of surface layer after antibody binding to the TPBG antigen immobilized on the surface layer. The binding was determined by surface plasmon resonance (SPR) through detecting the laser refracted from the surface. Non-specific and specific interactions were distinguished by analysis of signal kinetics binding rate and dissociation rate. Chimeric antibodies 12B12 and 28D4 were used as controls.

First: B3
Second: B4
The Kd of the first is 3.1-fold lower: 0.013 nM for the first, 0.0406 nM for the second.

B5 and B6 are within 1.5-fold of each other in Kd: 0.0256 nM for the first, 0.0231 nM for the second.

B3 and B4 are within 1.5-fold of each other in koff: 3.24e-05 s⁻¹ for the first, 4.57e-05 s⁻¹ for the second.

Compared with B5, B6 is 2.6-fold lower in koff: 9.42e-05 s⁻¹ for the first, 3.58e-05 s⁻¹ for the second.

First: B3
Second: B4
The kon of the first is 2.2-fold higher: 2.5e+06 M⁻¹ s⁻¹ for the first, 1.12e+06 M⁻¹ s⁻¹ for the second.

Going from B5 to B6, the kon falls from 3.68e+06 M⁻¹ s⁻¹ to 1.55e+06 M⁻¹ s⁻¹ (2.4-fold).

target: T4, mouse TPBG protein, full-length, on the …; assay: FACS on CHO-k1 cells with surface-expressed mouse TPBG, fluorescent secondary antibody, mean fluorescence intensity

B3: no binding (tested: 100 nM).
B4: no binding (tested: 100 nM).
B5: no binding (tested: 100 nM).
B6: no binding (tested: 100 nM).

target: T1, human TPBG protein, full-length, on the …; assay: cell-based or functional assay; remark: another data set of the same source

In the case of B7, the “IC50 of cell killing, MDA-MB-468 cells (CellTiter-Glo, 5 days)” value is reported as 0.44 nM.

For B7, the “IC50 of cell killing, NCI-H1568 cells” value was 0.38 nM.

With B7 the “IC50 of cell killing, NCI-H1975 cells (CellTiter-Glo, 5 days)” value was 5.93 nM.

target: T1, human TPBG protein, full-length, on the …; assay: cell-based or functional assay; remark: another data set of the same source

B8 and B9 are within 1.5-fold of each other in “IC50 of cell killing, NCI-H1568 cells” value: 0.091 nM for the first, 0.061 nM for the second.

B10 and B11 are within 1.5-fold of each other in “IC50 of cell killing, NCI-H1568 cells” value: 0.066 nM for the first, 0.074 nM for the second.

target: T5, human TPBG-hFc protein; assay: ELISA, coated human TPBG-hFc
Protocol: The purified human TPBG-hFc obtained from step (1) diluting with PBS to a final concentration of 1.0 μg/mL was aliquoted into a 96-well ELISA plate at 100 μL per well, and sealed with a parafilm and incubated at 4° C. overnight. The plate was washed twice with plate washing buffer (PBS containing 0.01% (v/v) Tween 20), and blocked with blocking buffer (PBS containing 0.01% (v/v) Tween 20 and 1% (w/w) BSA) at room temperature for 2 h. The blocking buffer was discarded, and […] per well of the purified antibody TPBG was added. After incubating at 37° C. for 2 h, the plate was washed for three times with plate washing buffer (PBS containing 0.01% (v/v) Tween 20). HRP (horseradish peroxidase)-labeled secondary antibody (purchased from Sigma) was added and incubated at 37° C. for 2 h, and the plate was washed for three times using plate washing buffer (PBS containing 0.01% (v/v) Tween 20). 100 μL of TMB substrate was aliquoted into each well, incubated at room temperature for 30 min, and 100 μL of stop buffer (1.0 N HCl) per well was subsequently added. A_{450 nm} values were read using the ELISA plate reader (SpectraMax 384plus purchased from Molecular Device), and the results were shown in Table 5. […] In Table 5 the IgG control herein is a mice IgG control, the data in the Table are OD_{450 nm} values, and Blank represents the OD_{450 nm} value of PBS buffer in the plate.
The purified humanized TPBG antibody obtained from Embodiment 1 was reacted with human TPBG-hFc, for the method, see (5) Identification of lead antibody in Embodiment 1. The EC50 in Table 11 and Table 12 are calculated according to the OD450 nm value of the h12B12 variants and the h28D4 variants, respectively. […] FIGS. 7A and 7B are the binding reactions of purified humanized h12B12 variants to human TBPG-hFc protein, and FIGS. 8A and 8B are the binding reactions of the purified humanized h28D4 variants to human TBPG-hFc protein.

B3 and B4 are within 1.5-fold of each other in EC50: 0.165 nM for the first, 0.16 nM for the second.

B5 and B6 are within 1.5-fold of each other in EC50: 0.161 nM for the first, 0.147 nM for the second.

target: T1, human TPBG protein, full-length, on the …; assay: FACS on CHOK1-hTPBG cells

B3 and B4 are within 1.5-fold of each other in EC50: 0.33 nM for the first, 0.26 nM for the second.

B5 and B6 are within 1.5-fold of each other in EC50: 0.37 nM for the first, 0.38 nM for the second.
